Molecular target: osteopontin (UniProt P10451)
Chain of UniProt P10451 (P10451 17-314): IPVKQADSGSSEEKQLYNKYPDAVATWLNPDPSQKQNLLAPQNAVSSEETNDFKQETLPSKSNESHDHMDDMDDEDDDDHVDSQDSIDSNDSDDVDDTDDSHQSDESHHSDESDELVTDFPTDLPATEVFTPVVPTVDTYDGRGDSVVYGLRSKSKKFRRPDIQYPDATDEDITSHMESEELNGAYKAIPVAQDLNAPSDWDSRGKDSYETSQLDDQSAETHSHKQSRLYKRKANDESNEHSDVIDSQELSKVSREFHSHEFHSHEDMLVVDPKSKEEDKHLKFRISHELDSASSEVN

PDGF-BB-stimulated fibroblast migration on osteopontin (monolayer wound closure, 24 h): inhibition by integrin αV blocking antibody in the panel of integrin blocking antibodies (Fig. 3B): 92%
PDGF-BB-stimulated fibroblast migration on osteopontin (monolayer wound closure, 24 h): reduction by integrin αV blocking antibody compared to control IgG (Fig. 3A): 91%
Substance: integrin alpha v (αV) (receptor)
